Target: CD137 (UniProt Q07011)
Experiment: cell-based or functional assay

CD137, sequence (Q07011 24-255 limits assumed): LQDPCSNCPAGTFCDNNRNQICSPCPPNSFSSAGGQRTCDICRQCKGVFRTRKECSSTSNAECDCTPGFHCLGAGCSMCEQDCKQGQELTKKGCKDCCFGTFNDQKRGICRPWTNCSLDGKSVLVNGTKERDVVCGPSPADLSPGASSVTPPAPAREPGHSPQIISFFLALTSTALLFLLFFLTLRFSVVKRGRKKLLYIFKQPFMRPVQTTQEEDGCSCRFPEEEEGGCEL

Substance | EC50, CD137 reporter coculture assay with PC3 cells [nM] | Emax, CD137 reporter coculture assay with PC3 cells (fold over background) | EC50, CD137 reporter coculture assay with NCI-H292 cells [nM] | Emax, CD137 reporter coculture assay with NCI-H292 cells (fold over background)
BCY9173 (peptide) | 0.54 | 42 |  | 
BCY10000 (peptide) |  |  | 1.1 | 28

Reference: US20210101937A1
